Among the data in patent publication US20210355194A1 (TWIST BIOSCIENCE, published 2021) are Kd values, retold here.

This assay addresses T1, Acro SARS-CoV-2 (COVID-19) S1 protein (SARS-CoV-2, UniProt P0DTC2 16-685).
T1 construct: also called SARS-CoV-2 S1
The assay can be described thus: SPR.

B1: variant 6-40 (Fc fusion)
VHH: EVQLVESGGGLVQPGGSLRLSCAASGFTFSDYWMGWFRQAPGKERELVARVWWNGGSAYYADSVKGRFTISADNSKNTAYLQMNSLKPEDTAVYYCAREVLRQQVVLDYWGQGTLVTVSS
The Kd is a measure of binding affinity in units of concentration. Low readings indicate higher affinity, high ones lower affinity. B1 had a Kd of 44.3 nM. This lies in the double-digit nanomolar range.

B2: variant 6-39 (Fc fusion)
VHH: EVQLVESGGGLVQPGGSLRLSCAASGFTFSPSWMGWFRQAPGKEREFVAAISWSGGSTAYADSVKGRFTISADNSKNTAYLQMNSLKPEDTAVYYCHGLGEGDPYGDYEGYFDLWGQGTLVTVSS
The molecule B2 came in with a Kd of 11.3 nM.

B3: variant 6-16 (Fc fusion)
VHH: EVQLVESGGGLVQPGGSLRLSCAASGFTFDDAAMGWFRQAPGKEREFVAHISWSGGSTYYADSVKGRFTISADNSKNTAYLQMNSLKPEDTAVYYCATFGATVTATNDAFDIWGQGTLVTVSS
For B3, the Kd turned out to be 52.1 nM.

B4: variant 6-44 (Fc fusion)
VHH: EVQLVESGGGLVQPGGSLRLSCAASGGTFGVYHMGWFRQAPGKEREFIGRITWTDGSTYYADSVKGRFTISADNSKNTAYLQMNSLKPEDTAVYYCFGLLEVYDMTFDYWGQGTLVTVSS
Take B4: the Kd turned out to be 8.2 nM.

B5: variant 6-24 (Fc fusion)
VHH: EVQLVESGGGLVQPGGSLRLSCAASGFTLDYYAMGWFRQAPGKEREFVAAINWSGDNTHYADSVKGRFTISADNSKNTAYLQMNSLKPEDTAVYYCARAPFYCTTTKCQDNYYYMDVWGQGTLVTVSS
The molecule B5 returned a Kd of 29.9 nM.

B6: variant 6-13 (Fc fusion)
VHH: EVQLVESGGGLVQPGGSLRLSCAASGLTFNDYAMGWFRQAPGKEREFVAHIPRSTYSPYYADSVKGRFTISADNSKNTAYLQMNSLKPEDTAVYYCAFLVGPQGVDHGAFDVWGQGTLVTVSS
For the molecule B6, binding was put at a Kd of 25.3 nM.

B7: variant 6-34 (Fc fusion)
VHH: EVQLVESGGGLVQPGGSLRLSCAASGSAFRSNAMGWFRQAPGKEREFVAHISWSSKSTYYADSVKGRFTISADNSKNTAYLQMNSLKPEDTAVYYCATYCSSTSCFDYWGQGTLVTVSS
B7 registered a Kd of 21.3 nM.

B8: variant 6-37 (Fc fusion)
VHH: EVQLVESGGGLVQPGGSLRLSCAASGHTFSTSWMGWFRQAPGKEREFVATINSLGGTNYADSVKGRFTISADNSKNTAYLQMNSLKPEDTAVYYCARVSSGDYGMDVWGQGTLVTVSS
The molecule B8 had a Kd of 22.5 nM.

B9: variant 6-38 (Fc fusion)
VHH: EVQLVESGGGLVQPGGSLRLSCAASGNTFSGGFMGWFRQAPGKEREFVAVISSLSSKSYADSVKGRFTISADNSKNTAYLQMNSLKPEDTAVYYCAKVDSGYDYWGQGTLVTVSS
In the case of B9, the Kd came out at 26.6 nM.

B10: variant 6-41 (Fc fusion)
VHH: EVQLVESGGGLVQPGGSLRLSCAASGFTFSTSWMGWFRQAPGKEREFVASINEYGGRNYADSVKGRFTISADNSKNTAYLQMNSLKPEDTAVYYCAGLHYYYDSSGYNPTEYYGMDVWGQGTLVTVSS
For B10, binding was put at a Kd of 51.5 nM.

B11: variant 6-42 (Fc fusion)
VHH: EVQLVESGGGLVQPGGSLRLSCAASGDTYGSYWMGWFRQAPGKEREFVAVITSGGSTNYADSVKGRFTISADNSKNTAYLQMNSLKPEDTAVYYCTHVQNSYYYAMDVWGQGTLVTVSS
Take B11: the Kd was found to be 10.1 nM. Compared with the last molecule, the Kd is about 5.1-fold lower.

B12: variant 6-77 (Fc fusion)
VHH: EVQLVESGGGLVQPGGSLRLSCAASGFTFDRSWMGWFRQAPGKEREFVAAVTEGGTTSYADSVKGRFTISADNSKNTAYLQMNSLKPEDTAVYYCARADYDFDYWGQGTLVTVSS
For B12, the Kd amounted to 24.6 nM.

B13: variant 6-36 (Fc fusion)
VHH: EVQLVESGGGLVQPGGSLRLSCAASGFDFSVSWMGWFRQAPGKEREFVTAITWSGDSTNYADSVKGRFTISADNSKNTAYLQMNSLKPEDTAVYYCASLLHTGPSGGNYFDYWGQGTLVTVSS
The molecule B13 had a Kd of 32.1 nM.

B14: variant 6-12 (Fc fusion)
VHH: EVQLVESGGGLVQPGGSLRLSCAASGSTYTTYSMGWFRQAPGKEREFVAAISGSENVTSYADSVKGRFTISADNSKNTAYLQMNSLKPEDTAVYYCARVDDYMDVWGQGTLVTVSS
Take B14: the Kd was 50.2 nM.

B15: variant 6-5 (Fc fusion)
VHH: EVQLVESGGGLVQPGGSLRLSCAASGRTFTMGWFRQAPGKEREFVASTNSAGSTNYADSVNGRFTISADNSKNTAYLQMNSLKPEDTAVYYCTTVDQYFDYWGQGTLVTVSS
The molecule B15 yielded a Kd of 24.9 nM.

B16: variant 6-33 (Fc fusion)
VHH: EVQLVESGGGLVQPGGSLRLSCAASGTFQRINHMGWFRQAPGKEREFVATINTGGQPNYADSVKGRFTISADNSKNTAYLQMNSLKPEDTAVYYCASLIAAQDYYFDYWGQGTLVTVSS
Molecule B16 registered a Kd of 76.4 nM.

B17: variant 6-32 (Fc fusion)
VHH: EVQLVESGGGLVQPGGSLRLSCAASGFTLDYYDMGWFRQAPGKEREFVALISWSGGSTYYADSVKGRFTISADNSKNTAYLQMNSLKPEDTAVYYCATDFYGWGTRERDAFDIWGQGTLVTVSS
In turn, B17 returned a Kd of 27.2 nM.

B18: variant 6-14 (Fc fusion)
VHH: EVQLVESGGGLVQPGGSLRLSCAASGITFRFKAMGWFRQAPGKEREFVAAVSWDGRNTYYADSVKGRFTISADNSKNTAYLQMNSLKPEDTAVYYCASDYYYMDVWGQGTLVTVSS
For the molecule B18, the Kd was 135 nM.

B19: variant 6-22 (Fc fusion)
VHH: EVQLVESGGGLVQPGGSLRLSCAASGRTFSEVVMGWFRQAPGKEREFVATIHSSGSTSYADSVKGRFTISADNSKNTAYLQMNSLKPEDTAVYYCVRVTSDYSMDSWGQGTLVTVSS
The molecule B19 returned a dissociation constant Kd of 25.6 nM.

B20: variant 6-19 (Fc fusion)
VHH: EVQLVESGGGLVQPGGSLRLSCAASGSILSIAVMGWFRQAPGKEREFVAAISPSAVTTYYADSVKGRFTISADNSKNTAYLQMNSLKPEDTAVYYCAIGYYDSSGYFDYWGQGTLVTVSS
Molecule B20 had a Kd of 71 nM.

B21: variant 6-18 (Fc fusion)
VHH: EVQLVESGGGLVQPGGSLRLSCAASGLTFRNYAMGWFRQAPGKEREFIAGMMWSGGTTTYADSVKGRFTISADNSKNTAYLQMNSLKPEDTAVYYCAREGYYYDSSGYLNYFDYWGQGTLVTVSS
Molecule B21 registered a Kd of 30.1 nM.

B22: variant 6-31 (Fc fusion)
VHH: EVQLVESGGGLVQPGGSLRLSCAASGDTFSANRMGWFRQAPGKEREFVASITWSSANTYYADSVKGRFTISADNSKNTAYLQMNSLKPEDTAVYYCATFNWNDEGFDFWGQGTLVTVSS
Molecule B22 yielded a Kd of 39.6 nM.

B23: variant 6-45 (Fc fusion)
VHH: EVQLVESGGGLVQPGGSLRLSCAASGNMFSINAMGWFRQAPGKEREFVTLISWSSGRTSYADSVKGRFTISADNSKNTAYLQMNSLKPEDTAVYYCASLGYCSGGSCFDYWGQGTLVTVSS
Molecule B23 yielded a Kd of 17.5 nM.

B24: variant 6-43 (Fc fusion)
VHH: EVQLVESGGGLVQPGGSLRLSCAASGRTFSSYAMMGWFRQAPGKEREFVASVNWDASQINYADSVKGRFTISADNSKNTAYLQMNSLKPEDTAVYYCTTLGAVYFDSSGYHDYFDYWGQGTLVTVSS
In turn, B24 yielded a Kd of 17.9 nM.

B25: variant 6-23 (Fc fusion)
VHH: EVQLVESGGGLVQPGGSLRLSCAASGSIFSMNTMGWFRQAPGKEREFVALINRSGGGINYADSVKGRFTISADNSKNTAYLQMNSLKPEDTAVYYCVRLSSGYYDFDYWGQGTLVTVSS
B25 registered a Kd of 59.3 nM.

B26: variant 6-28 (Fc fusion)
VHH: EVQLVESGGGLVQPGGSLRLSCAASGDTYGSYWMGWFRQAPGKEREFVATITSDDRTNYADSVKGRFTISADNSKNTAYLQMNSLKPEDTAVYYCARVTSSLSGMDVWGQGTLVTVSS
For the molecule B26, the Kd was 54.1 nM. The Kd values of the last two molecules are within 1.5-fold of each other.

B27: variant 6-4 (Fc fusion)
VHH: EVQLVESGGGLVQPGGSLRLSCAASGFTRDYYTMGWFRQAPGKEREFVAAISRSGSLTSYADSVKGRFTISADNSKNTAYLQMNSLKPEDTAVYYCANLAYYDSSGYYDYWGQGTLVTVSS
B27 showed a Kd of 45.8 nM.

B28: variant 6-6 (Fc fusion)
VHH: EVQLVESGGGLVQPGGSLRLSCAASGTTLDYYAMGWFRQAPGKERELVAAISWSGGSTAYADSVKGRFTISADNSKNTAYLQMNSLKPEDTAVYYCAREDYYDSSGYSWGQGTLVTVSS
For the molecule B28, the Kd was 6.4 nM.

B29: variant 6-9 (Fc fusion)
VHH: EVQLVESGGGLVQPGGSLRLSCAASGFTFDYYAMGWFRQAPGKEREFVSAIDSEGRTSYADSVKGRFTISADNSKNTAYLQMNSLKPEDTAVYYCARWGPFDIWGQGTLVTVSS
For B29, the Kd came out at 18.5 nM.

B30: variant 6-17 (Fc fusion)
VHH: EVQLVESGGGLVQPGGSLRLSCAASGNTGSTGYMGWFRQAPGKEREMVAGVINDGSTVYADSVKGRFTISADNSKNTAYLQMNSLKPEDTAVYYCARLATSHQDGTGYLFDYWGQGTLVTVSS
Turning to B30, the Kd was 65.2 nM.

B31: variant 6-25 (Fc fusion)
VHH: EVQLVESGGGLVQPGGSLRLSCAASGLTFGTYTMGWFRQAPGKEREFVAAISRFGSTYYADSVKGRFTISADNSKNTAYLQMNSLKPEDTAVYYCARGGDYDFWSVDYMDVWGQGTLVTVSS
Turning to B31, the affinity, expressed as Kd, was 248 nM. This Kd is about 3.8-fold higher than that of the molecule before.

B32: variant 6-35 (Fc fusion)
VHH: EVQLVESGGGLVQPGGSLRLSCAASGFTLAYYAMGWFRQAPGKEREFVAAISMSGDDTIYADSVKGRFTISADNSKNTAYLQMNSLKPEDTAVYYCARELGYSSTVWPWGQGTLVTVSS
Turning to B32, binding was characterised by a dissociation constant (Kd) of 251 nM.

B33: variant 6-10 (Fc fusion)
VHH: EVQLVESGGGLVQPGGSLRLSCAASGSIASIHAMGWFRQAPGKEREFVAAISRSGGFGSYADSVKGRFTISADNSKNTAYLQMNSLKPEDTAVYYCARDDKYYDSSGYPAYFQHWGQGTLVTVSS
As to B33, binding was put at a Kd of 29.7 nM.
